Experimental data taken from patent publication US20110301335A1 (published 2011).

What was measured:
[1] = target: human TNFR1 (R&D systems, cat no. 636-R1/CF) (human) (UniProt P19438); assay: BIAcore sequential injection on biotinylated human TNFR1; competitor DOM1h-574-16
[2] = target: T1, human TNFR1 on MRC-5 cells (human, UniProt P19438 30-455); assay: cell-based or functional assay
T1 sequence (looked up): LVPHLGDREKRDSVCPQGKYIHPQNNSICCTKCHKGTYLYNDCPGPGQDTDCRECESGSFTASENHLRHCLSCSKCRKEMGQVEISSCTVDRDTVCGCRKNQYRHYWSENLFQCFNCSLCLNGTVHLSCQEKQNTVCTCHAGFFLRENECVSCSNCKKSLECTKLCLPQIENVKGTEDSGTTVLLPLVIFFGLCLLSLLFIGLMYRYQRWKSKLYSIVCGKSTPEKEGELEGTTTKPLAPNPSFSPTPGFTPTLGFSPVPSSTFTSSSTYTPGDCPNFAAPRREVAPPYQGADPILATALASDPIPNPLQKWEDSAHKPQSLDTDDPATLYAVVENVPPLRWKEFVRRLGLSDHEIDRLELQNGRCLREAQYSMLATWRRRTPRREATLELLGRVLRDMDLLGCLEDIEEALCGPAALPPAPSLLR

[3] = target: mouse TNFR1 on L929 cells (mouse) (UniProt P25118); assay: cell-based or functional assay
Sequence of mouse TNFR1 on L929 cells (mouse) (P25118 30-454): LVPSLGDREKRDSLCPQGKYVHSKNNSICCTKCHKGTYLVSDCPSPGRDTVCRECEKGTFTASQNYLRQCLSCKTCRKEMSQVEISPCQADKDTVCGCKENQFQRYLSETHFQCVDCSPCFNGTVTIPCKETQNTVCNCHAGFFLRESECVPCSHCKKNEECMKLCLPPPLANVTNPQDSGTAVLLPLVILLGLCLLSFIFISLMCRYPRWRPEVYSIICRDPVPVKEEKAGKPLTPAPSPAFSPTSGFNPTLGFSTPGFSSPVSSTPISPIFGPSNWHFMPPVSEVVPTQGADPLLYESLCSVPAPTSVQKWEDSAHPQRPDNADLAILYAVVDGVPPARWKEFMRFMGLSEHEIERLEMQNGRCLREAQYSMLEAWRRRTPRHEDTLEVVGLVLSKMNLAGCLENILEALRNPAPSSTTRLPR

[4] = target: T2, human TNFR1 (R&D systems, cat no. 636-R1/CF) (human, UniProt P19438 30-211, limits assumed, biotinylated with EZ-Link NHS-LC-LC-biotin where coated on streptavidin chips; amine-coupled in the Table 2 experiment); assay: BIAcore screening of supernatants
T2 construct: bought soluble recombinant protein; also called hTNFR1; p55
T2 sequence (looked up): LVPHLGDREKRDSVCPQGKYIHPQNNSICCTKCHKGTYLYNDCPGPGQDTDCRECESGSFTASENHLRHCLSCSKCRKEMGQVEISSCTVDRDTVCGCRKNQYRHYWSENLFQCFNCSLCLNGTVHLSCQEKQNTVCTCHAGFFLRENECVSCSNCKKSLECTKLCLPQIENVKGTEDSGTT

[5] = target: T1, human TNFR1 on MRC-5 cells; assay: cell-based or functional assay; remark: listed apart in the source
[6] = target: T1, human TNFR1 on MRC-5 cells; assay: cell-based or functional assay; remark: listed apart in the source

Molecule: mAb Clone 4.12 (Invitrogen, cat. no. Zymed 33-0100) (antibody)
- percent less binding after DOM1h-574-16 [1]: 20%

B1: DMS0132 (bispecific antibody)
chain: EVQLLESGGGLVQPGGSLRLSCAASGFTFVKYSMGWVRQAPGKGLEWVSQISDTADRTYYAHSVKGRFTISRDNSKNTLYLQMNSLRAEDTAVYYCAIYTGRWVPFEYWGQGTLVTVSSASTDIQMTQSPSSLSASVGDRVTITCRASRPIGTTLSWYQQKPGKAPKLLILWNSRLQSGVPSRFSGSGSGTDFTLTISSLQPEDFATYYCAQAGTHPTTFGQGTKVEIKR
- MRC5 ND50 [2]: 1.04 nM
- L929 ND50 [3]: 6.8 nM

B2: DMS0135 (bispecific antibody)
chain: EVQLLESGGGLVQPGGSLRLSCAASGFTFFKYSMGWVRQAPGKGLEWVSQISDTADRTYYSHSVKGRFTISRDNSKNTLYLQMNSLRAEDTAVYYCAIYTGRWVPFEYWGQGTLVTVSSASTDIQMTQSPSSLSASVGDRVTITCRASRPIGTTLSWYQQKPGKAPKLLILWNSRLQSGVPSRFSGSGSGTDFTLTISSLQPEDFATYYCAQAGTHPTTFGQGTKVEIKR
- MRC5 ND50 [2]: 1.17 nM
- L929 ND50 [3]: 5.9 nM

B3: DMS0134 (bispecific antibody)
chain: EVQLLESGGGLVQPGGSLRLSCAASGFTFFKYSMGWVRQAPGKGLEWVSQISDTADRTYYAHSVKGRFTISRDNSKNTLYLQMNSLRAEDTAVYYCAIYTGRWVPFEYWGQGTLVTVSSASTDIQMTQSPSSLSASVGDRVTITCRASRPIGTTLSWYQQKPGKAPKLLILWNSRLQSGVPSRFSGSGSGTDFTLTISSLQPEDFATYYCAQAGTHPTTFGQGTKVEIKR
- MRC5 ND50 [2]: 0.96 nM
- L929 ND50 [3]: 6.52 nM

B4: DMS0133 (bispecific antibody)
chain: EVQLLESGGGLVQPGGSLRLSCAASGFTFFKYSMGWVRQAPGKGLEWVSQISDTADRTYYAHSVKGRFTISRDNSKNTLYLQMNSLRAEDTAVYYCAIYTGRWAPFEYWGQGTLVTVSSASTDIQMTQSPSSLSASVGDRVTITCRASRPIGTTLSWYQQKPGKAPKLLILWNSRLQSGVPSRFSGSGSGTDFTLTISSLQPEDFATYYCAQAGTHPTTFGQGTKVEIKR
- MRC5 ND50 [2]: 0.99 nM
- L929 ND50 [3]: 4.2 nM

B5: DOM1h-574-7 (other)
VH: EVQLLESGGGLVQPGGSLRLSCAASGFTFVKYSMGWVRQAPGKGLEWVSQISNTGGHTYYADSVKGRFTISRDNSKNTLYLQMNSLRAEDTAVYYCAIYTGRWEPFDYWGQGTLVTVSS
notes: anti-TNFR1 dAb (VH) from error-prone test maturation; expressed from pDOM5 (myc tag not included here)
- binding result [4]: binds

B6: DMS0117 (bispecific antibody, V domains shown)
VH: EVQLLESGGGLVQPGGSLRLSCAASGFTFVKYSMGWVRQAPGKGLEWVSQISDTGDRRYYDDSVKGRFTISRDNSKNTLYLQMNSLRAEDTAVYYCAIYTGRWKPFEYWGQGTLVTVSS
- MRC5 (ND50 in nM) [5]: 25.9 nM

B7: DOM1h-574-19 (other)
VH: EVQLLESGGGLVQPGGSLRLSCAASGFTFGKYSMGWVRQAPGKDLEWVSQISNTGDHTYYADSVKGRFTISRDNSKNTLYLQMNSLRAEDTAVYYCAIYTGRWEPFDYWGQGTLVTVSS
- MRC-5 EC50 [6]: 140 nM

B8: DMS0114 (bispecific antibody, V domains shown)
VH: EVQLLESGGGLVQPGGSLRLSCAASGFTFVKYSMGWVRQAPGKGLEWVSQISNTADRTYYAHSVKGRFTISRDNSKNTLYLQMNSLRAEDTAVYYCAIYTGRWRPFEYWGQGTLVTVSS
- MRC5 (ND50 in nM) [5]: 3.7 nM

B9: DMS0122 (bispecific antibody, V domains shown)
VH: EVQLLESGGGLVQPGGSLRLSCAASGFTFVKYSMGWVRQAPGKGLEWVSQISDTGDRRYYDDSVKGRFTISRDNSKNTLYLQMNSLRAEDTAVYYCAIYTGRWAPFEYWGQGTLVTVSS
- MRC5 (ND50 in nM) [5]: 1.5 nM

B10: DOM1h-574-10 (other)
VH: EVQLLESGGGLVQPGGSLRLSCAASGFTFGKYSMGWVRQAPGKDLEWVSQISNTGGHTYYADSVKGRFTISRDNSKNTLYLQMNSLRAEDTAVYYCAIYTGRWEPFDYWGQGTLVTVSS
notes: as for B5
- binding result [4]: binds
